The results in this text go back to patent US20200264162A1.

The target in this test is tau-RFP (full-length 2N4R wild-type tau fused to the N-terminus of TagRFP) (UniProt P10636). Put plainly: fluorescence lifetime FRET in live HEK293 cells, titration of tau-RFP acceptor to tau-GFP donor.

“tau-GFP (full-length 2N4R wild-type tau fused to the N-terminus of EGFP) (from UniProt P10636 2-758)” displayed a maximum energy transfer efficiency (E) of 0.086.
